From a protein production outcome set (Wang et al. 2014)

Assay: label from the status in PepcDB records

| Sequence | protein production |
| --- | --- |
| MQDHIISFTAGILSVLSPCILPVIPVIFSESLIGNRKERFLFLSGFSSLFLFTIILTAIFTAAVNYYLLYLRVPASIMLIIMGLLVLSEKPLISIRTPPAENHVLMGLLTAIAWTPCYSPYLIGVIAYSAYTGIPGALVNMALYTLGLTITLIAVTLLAEPVLRRLLRGSRDIRRASGVLIVVAGIYMLYQLIPLP | failed |
| MSSSSPGEPLEPTDQDLDVLLKNLGNLVTPMALRVAATLRLVDHLLAGADTLAGLADRTDTHPQALSRLVRHLTVVGVLEGGEKQGRPLRPTRLGMLLADGHPAQQRAWLDLNGAVSHADLAFTGLLDVVRTGRPAYAGRYGRPFWEDLSADVALADSFDALMSCDEDLAYEAPADAYDWSAVRHVLDVGGGNGGMLAAIALRAPHLRGTLVELAGPAERARRRFADAGLADRVTVAEGDFFKPLPVTADVVLLSFVLLNWSDEDALTILRGCVRALEPGGRLLVLDRADVEGDGADRFFSTLLDLRMLTFMGGRVRTRDEVVDLAGSAGLALASERTSGSTTLPFDFSILEFTAVSEEAAPAAQASEALPAQE | not failed |
| MSSPTRTSAKDRLSGVWALKGYKREWLRHDIVAGAALFALLVPAGMAYAQAAGLPPVTGLYATVVPLLVYAIVGPSRILVLGPDSALAPMIAAAIVPLAAGSSEKSVALAGLLAVLIGVIMLAGSALKLGTITGLLSKPIRLGYLNGIALLVLLSQLPAFFGIEADGDIWEKLAKVTTGVLGGGVNVTALLLGSGSLALIWIPRLLKWKVPGVLLAVVGSCVVTAVWGLNDDVKVTGVLPQGLPMPALGGIGWADALTLLPAAAGIALMAFADTGVLSQTLAAKEGKKVSGNREMAALGAANAATGLLGGFPISGSTSRTPVAVDAGAKSQMTGVVGSVLVLAFMLLAPGVTEYLPSATLAAVVIAAAIALADPAGVKRLLSLSRSESVVMLAAFLGVLTVGVLQGIVVAIALALLDFVRRAWDPYRTELGAEEGLPGYHDLERHPDGERIPGLLILRFDAPLFFGNGQVLAAFVREQLDEAPDETTDAITHVILAAEPITGIDTTALDDLVTLDEWLASKGVDLVFAELKGPVKDKLIHLGTAARFTPDHFFPTVGAAVRTLKNE | failed |
| MDEILARAGIFQGVEPSAIAALTKQLQPVDFPRGHTVFAEGEPGDRLYIIISGKVKIGRRAPDGRENLLTIMGPSDMFGELSIFDPGPRTSSATTITEVRAVSMDRDALRSWIADRPEISEQLLRVLARRLRRTNNNLADLIFTDVPGRVAKQLLQLAQRFGTQEGGALRVTHDLTQEEIAQLVGASRETVNKALADFAHRGWIRLEGKSVLISDSERLARRAR | not failed |
| MAGNAPLQQVQKKWAECQYSTPDGDEKEQCFHRAIAKTSIYLDREPGNPELTVWLAINKASLAGAQGGFGALSLAKEAKSLLEGVIATSPQTLDGSAYTSLGSLYYKVPGWPIGFGDDDKAEEMLKKALEINPKGIDPNYFYGDFLAEEGRDKEAKVYLTRAMQASPRPDRPLADKGRKLEIEATLGRLKLEHHHHHH | not failed |
| MLSKVIAQANIDHAEKWFERADKIVIVTHVSPDGDAIGSSLGLWHFLESQEKTVNVIVPNAFPDFLRWMPGAKDIIRYDKYTEFANKLLNEADVICCLDFNALSRIDAMADAVAQSPARKMMIDHHLNPEAFCRIIISHPEISSTSELVFRLICRLGYFEDITKEGAECIYTGMMTDTGGFTYNSNDREIYFIISELLSKGIDKDEIYRKVYNTYSEGRLRLMGYVLYDKMQVFPQFNSALVWLTKEEQSKFQYVKGDTEGFVNIPLSIKNIIFSVFLREDTEKNMIKVSLRSVGAFPCNKVAAEFFNGGGHLNASGGEFYGTMDEAIDLFKQALVKYEELLLAKK | failed |
| MSTVEKIQTFIILFAVTCGIVLGQFHLIHMYSEQFIVPFLFFMLYGLFLSIPLKEIKNGFRNLKFAGTSLTINFLWTPLLAWGLGALFLSDHPALWVGFIMLMVTPCTDWYLIFTEIAKGNVALSTAILPVNLILQVLLLPIYLFLFAGVMKTVAVSVLVESIVIVIVLPFLLAHATKFIMNKLKKAETLENKLIPFFSSAQIVFLSLAIVAMFASQGKYLLQNMNVVLLLLIPVLLFFIINFVLGQFIGRVMRLSYKDTVSLNLTTLARNSPVALAIAVTAFPNEPLIALALVIGPLIELPVLACVSQVLLLIKKKKQYT | failed |
| MLFLVKEIYLQHLIQFFYVGFGIFLLYLGGNLLLKSSVGIATYLKVPTLLIGVTIVSFSTSAPELFTSLVAAFKGKNEIVVSNVIGSNIINMLLALPLAGFFLKIKADFKRLKLSFMFLFLLMFLLLLLSFDFRSYSFFVTPYNRFSSFSILILFLSYLLLFYKEEKEYASLENSFQEGASNLNQSFNFIFFNLLSFAISMYFLYLGSKLLVDGALYIANNVFNVSEKLIGIILVAFGTSVPELVVSLFAIIRKESDIAFGNIIGSNIFNIGFILASSSFFRPILLQDIYILDFSIMVFITLVLFLVVKFKGVFGRGISLIFLLLYFLYNLMLFNFY | failed |
| MNDITIIGASQNNLKNINITIPKHLVTVFTGRSGSGKSSLVFRTIAAESEQLLNESYSSYIQFHLNKQPKPKVNAIKNLPVAMTISQKRFNGNSRSTVGTVSDIYASVRLLWSRIGEPFVGYSDAFSFNSPNGMCETCEGLGYIEDINLNELLDWNKSLNEGAINFPSFGPDKERGKAYRDSGLFDNDKKLKAYTKEELDLFLYQEPIKLKKPPEEWRKSAKYVGLIPRFRRIFLGDKEFNKKRYAKHLKNVVENKVCPTCNGQRLNSKILSCKIMGKNISDFTQMTVKENLAFLNKLNNSTAQFIIEPLRKQLEALDYIGLSYLTLDRVTTSLSGGEAQRLKLIRHLNSSLSDLVYIIDEPSVGLHPEDIAKINEILKSLKHKGNTVLIVEHDPDVIKEADYIIDMGPSSGAQGGEITFKGTYKKLLSSDTSTGEALRIKHHLKNEIREAKSFYHLGPVTQNNLNNVTVDIPKHVLTVLTGVAGSGKSSLVKAGFAKNDNAVFMDQKAIQGSDRSNLLTYLGVFDRVRNFFSKETGLNKSMFSYNSKGACPNCGGKGYIETELAFMGEFSQTCEVCHGKRYKPEVLNATIDGYSIADFLELTVDEGIRFFDKENEIQSKLQAISKTGLNYVTLGQPLSTLSGGEIQRVKLGQYLNDDVTDSIFIFDEPTTGLHEADIPILINCFNDLIEQNNTVILIEHNLSIMCDADWIIDVGPGPGLDGGKIQFSGYPINFVKENKTLTSKHLKLYIAND | failed |
| MSYVLLLLGFALLIKGADFFVDGSSSIARLLNVSPLLIGLTIVAFGTSSPEATASIIAALNGNPDVALGNVIGSNMFNITLVVGLTALLSPLIVTNATLRKEIPFTLLASIALYIFINDQMIEGAVESTLSRSEGLILLLIFCVFLYYIFEVARTSPREQKIVQDFAIKPTWRKNIFLSILGLAMIIGGGELVIRHSTAIAFSHGMSETLVGLTIVAIGTSLPELVTSLTAALKKESEIALGNIVGSSIFNIFFVLGTAATITPMHVDSRVVVDLLLLIFLTLLLLVFSRTRYTVGKYEGLILASFYIGYMVYIIWRN | failed |
| VLLAITTGLVASLVNAKAYKGAEIFTNDAYLYGRYEIRMRVANASGILSTFFTYKNGSEVGNTFWEEIDIEVFGKNNATQWQSNIILGSSRPTIHTEEIHTADTSLADAYHTYVVEWTPDYVAWFLDGVEVRRITGTSTVTSLTNAQSLRFNIWSSESVPWVGAWDDSVLPVYQFVNYIDYKAYNATTKTFEGGWRDDFNNFDSSRWGKANWSFDMNRVDFAPENALVKDGILVLALTKENATGFNGTPPADEPASSSSSVAASSTPASSIAASSIAASVAASSVAVATSSVAASKASGGGSGGGAINGMWLLMLGSFVLLGWVHNQRQSHQQHQ | failed |
| MAATASPQPLATEDADAENSSFYYYDYLDEVAFMLCRKDAVVSFGKVFLPVFYSLIFVLGLSGNLLLLMVLLRYVPRRRMVEIYLLNLAISNLLFLVTLPFWGISVAWHWVFGSFLCKMVSTLYTINFYSGIFFISCMSLDKYLEIVHAQPYHRLRTRAKNLLLATIVWAVSLAVSIPDMVFVQTHENPKGVWNYHADFGGHGTIWKLFLRFQQNLLGFLLPLLGMIFFYSRIGCVLVRLRPAGQGRALKIAAALVVAFFVLWFPYNLTLFLHTLLDLQVFGNCEVSQHLDYALQVTESIAFLHCCFSPILYAFSSHRFRQYLKAFLAAVLGWHLAPGTAQASLSSCSESSILTALEEMTGMNDLGERQSENYPNKEDVGNKSA | failed |
| HQIVHVRGDSETDLEALFNAVMNPKTANVPQTVPMRLRKLPDSFFKPPEPKSHSRQASTDAGTAGALTPQHVRAHSSPASLQLGAVSPGTLTPTGVVSGPAATPTAQHLRQSS | failed |
| MDTRKNVSGAERKIWSLIRDCSGKLEGVTETSVLEVLLIVSRVLGIRKEDLFLKDLGVSPTEEKRILELVEKRASGYPLHYILGEKEFMGLSFLVEEGVFVPRPETEELVELALELIRKYGIKTVADIGTGSGAIGVSVAKFSDAIVFATDVSSKAVEIARKNAERHGVSDRFFVRKGEFLEPFKEKFASIEMILSNPPYVKSSAHLPKDVLFEPPEALFGGEDGLDFYREFFGRYDTSGKIVLMEIGEDQVEELKKIVSDTVFLKDSAGKYRFLLLNRRSS | not failed |
| MNVMQENQIKLIEHIKQAVVQAVGLEETEVPEILLEVPKDKKHGDYSTNIAMQLARVAKKAPRQIAESIVPELKKDTKLIKEVEIAGPGFINFYLDNAYLTDLVPVILTEDKKYG | not failed |
| MSLTSLIIAEDQNMLRQAMVQLIKLHGDFEILADTDNGLDAMKLIEEYNPNVVILDIEMPGMTGLEVLAEIRKKHLNIKVIIVTTFKRPGYFEKAVVNDVDAYVLKERSIEELVETINKVNNGEKEGHHHHHH | not failed |
| MMEEVARVVACDNQGWLTVEVELKSTCKSCNSSESCGTSAVAQAFSSKTQQFSIQSERTCEVGELLKLGLPESVILKAAALVYLMPLLGLFLGALSGQFFAGLFQINADLSAIGFAALGAITAWLIGKRKAKQLEVDSQPVILAYLGAGISLEKLPV | failed |
| MCVRHDAGHGCLRAREGRRRPSMAPPCRKKINKPVLVRVDEFCSAAVQAGNPIVPSTLETTHWATRRRPKEAGMASKMFKTVGRVAAGVAALSIAAAATTASADSRHHRHKRDKGGDVAAAAITAGVIGLVIGAAIADDGHRDDRYYDRRYAPPPPPPPTRYGHGYGYGYDYDYAPRPYYGDRECWTTREYNRRSGSYYERTVCR | failed |
| MRNNLSAYSNIETGEAATELECFPYSVQHNDEGVCLLVRMGPHRILLDCGLADISSIQKSLTPSVKRGNPPSPADLVLVTHAHPDHARGLLALHQAFPNLPIYGSEVTSKLLPLNWLDHNPQEIPQLCHALPLRSPVELQDGLVAEIFPCGHLPGAVAILLTYTTEQRSYKLLYTGDFFLSNSRLVEGLRLEELRGIDLNVLIIEGTYGTSRHPHRRNQENQLAERINRAISDRYSVVLPTPALGLGQELLMLLRSHHHFTGRDLDIWVDGAVAIGCDAYLELLPHLPASVQNFARHQPLFWDERVRPRVRRLQAENRSIVGKSPCIVLTDSTSDLEQYCQPETGPWLILLPEKIDIKVNKKYSAPTTVESYLLAQHSDGPGTTQLIHNLRPQHVVFVHGSPAYLADLTCLEELQNRYHIHSPAAETMVELLIGETFLQPAPPETNYEGELTELGTVITISIPEAITADPRWRQFADTGLIEARWQGEELVLRGLTQRELLNQNSDRNIPPEIDCCGTCRHQRGQRCWNPSSPLYNFRVTLEGHCPAFERLSNGE | failed |
| MSELVINNNIVNDLLIKQFTNYVFMMIVTDIKGNIIYANKKYCQFNHINFESIKNKRYNLFYLVDENQDVFSNISDNKEVIRLEAKNPNKNKQEVWEDINIVPIFDKNNLISHYAFLSLDITD | failed |
| MGLDVDWALDWLKLSAKAMAEHRVELIELDRPIGDSDHGENMDRGFQAVLQKLDETPPETPGAALKAAAMALMSKVGGAAGPLYGTAYLRAATSLGDAGDIDAEALAAALAAARDGVVARGKAELGDKTMIDAWTPAVEAAQKAAASGADPVAVLEAAAEAAETGAMATDPLVARKGRASYLGERSAGHRDPGAASTALLLRAAAAAAAGSTADKGADAV | failed |
